Measured values reported in patent publication US20240132578A1.

Key:
[1] = biological target: WT JR-FL gp120 (HIV-1 JR-FL); experiment: ELISA, antigen-coated wells, mAb titrated; EC50 by nonlinear regression
[2] = biological target: HIV-1 Env of isolate VLGCB3 (HIV-1); experiment: cell-based or functional assay
[3] = biological target: HIV-1 Env of isolate 93IN905 (HIV-1); experiment: cell-based or functional assay
[4] = biological target: HIV-1 Env of isolate NL43 (HIV-1); experiment: cell-based or functional assay
[5] = biological target: HIV-1 Env of isolate THR0.18 (HIV-1); experiment: cell-based or functional assay
[6] = biological target: HIV-1 Env of isolate MGRM-Chronic-B-017 (HIV-1); experiment: cell-based or functional assay
[7] = biological target: HIV-1 Env of isolate 92UG031 (pseudovirus) (HIV-1); experiment: cell-based or functional assay
[8] = biological target: HIV-1 Env of isolate MGRM-F1-018 (HIV-1); experiment: cell-based or functional assay
[9] = biological target: HIV-1 Env of isolate MGRM-Chronic-B-024 (HIV-1); experiment: cell-based or functional assay
[10] = biological target: HIV-1 Env of isolate 98IN022 (HIV-1); experiment: cell-based or functional assay
[11] = biological target: HIV-1 Env of isolate 93MW959 (HIV-1); experiment: cell-based or functional assay
[12] = biological target: HIV-1 Env of isolate 92WR024 (pseudovirus) (HIV-1); experiment: cell-based or functional assay
[13] = biological target: HIV-1 Env of isolate 94UG103 (pseudovirus) (HIV-1); experiment: cell-based or functional assay
[14] = biological target: HIV-1 Env of isolate 92WR021 (pseudovirus) (HIV-1); experiment: cell-based or functional assay
[15] = biological target: HIV-1 Env of isolate 97ZA012 (HIV-1); experiment: cell-based or functional assay
[16] = biological target: HIV-1 Env of isolate MGRM-D-005 (pseudovirus) (HIV-1); experiment: cell-based or functional assay
[17] = biological target: HIV-1 Env of isolate SF162 (HIV-1) (UniProt P19550); experiment: cell-based or functional assay
[18] = biological target: HIV-1 Env of isolate MGRM-Chronic-B-020 (HIV-1); experiment: cell-based or functional assay
[19] = biological target: HIV-1 Env of isolate SC422661.8 (HIV-1); experiment: cell-based or functional assay
[20] = biological target: HIV-1 Env of isolate MGRM-Chronic-B-018 (HIV-1); experiment: cell-based or functional assay
[21] = biological target: HIV-1 Env of isolate 93UG077 (pseudovirus) (HIV-1); experiment: cell-based or functional assay
[22] = biological target: HIV-1 Env of isolate 92WR020 (pseudovirus) (HIV-1); experiment: cell-based or functional assay
[23] = biological target: HIV-1 Env of isolate MGRM-Chronic-B-011 (HIV-1); experiment: cell-based or functional assay
[24] = biological target: HIV-1 Env of isolate JRCSF (HIV-1) (UniProt P20871); experiment: cell-based or functional assay
[25] = biological target: HIV-1 Env of isolate 93WR029 (pseudovirus) (HIV-1); experiment: cell-based or functional assay
[26] = biological target: HIV-1 Env of isolate TRJ04551.58 (HIV-1); experiment: cell-based or functional assay
[27] = biological target: HIV-1 Env of isolate 92UG037 (pseudovirus) (HIV-1); experiment: cell-based or functional assay
[28] = biological target: HIV-1 Env of isolate QH0692.42 (HIV-1); experiment: cell-based or functional assay
[29] = biological target: HIV-1 Env of isolate MGRM-Chronic-B-012 (HIV-1); experiment: cell-based or functional assay
[30] = biological target: HIV-1 Env of isolate MGRM-Chronic-B-023 (HIV-1); experiment: cell-based or functional assay
[31] = biological target: HIV-1 Env of isolate TRO.11 (HIV-1); experiment: cell-based or functional assay
[32] = biological target: HIV-1 Env of isolate MGRM-Chronic-B-010 (HIV-1); experiment: cell-based or functional assay
[33] = biological target: HIV-1 envelope glycoprotein (Env) of isolate 92TH021, subtype AE (HIV-1); experiment: cell-based or functional assay
[34] = biological target: HIV-1 Env of isolate MGRM-AG-012 (pseudovirus) (HIV-1); experiment: cell-based or functional assay
[35] = biological target: HIV-1 Env of isolate MGRM-F1-023 (pseudovirus) (HIV-1); experiment: cell-based or functional assay
[36] = biological target: HIV-1 92RW020 Env (HIV-1); experiment: cell-based or functional assay
[37] = biological target: HIV-1 Env of isolate MGRM-AE-006 (pseudovirus) (HIV-1); experiment: cell-based or functional assay
[38] = biological target: HIV-1 MGRM-A-010 Env (HIV-1); experiment: cell-based or functional assay
[39] = biological target: HIV-1 Env of isolate MGRM-AE-005 (pseudovirus) (HIV-1); experiment: cell-based or functional assay
[40] = biological target: HIV-1 Env of isolate MGRM-AE-004 (pseudovirus) (HIV-1); experiment: cell-based or functional assay

Question: Which results are given for 5345_I01 (PGT-137) (antibody)?
Answer: EC50 [1]: 0.1 µg/mL; IC50 (µg/mL), pseudovirus neutralization [2]: 3.36 µg/mL; IC50 (µg/mL), pseudovirus neutralization [3]: 0.042 µg/mL; IC50 (µg/mL), pseudovirus neutralization [4]: 17.4 µg/mL; IC50 (µg/mL), pseudovirus neutralization [5]: > 50 µg/mL; IC50 (µg/mL), pseudovirus neutralization [6]: > 50 µg/mL; IC50 (µg/mL), pseudovirus neutralization [7]: > 50 µg/mL; IC50 (µg/mL), pseudovirus neutralization [8]: > 50 µg/mL; IC50 (µg/mL), pseudovirus neutralization [9]: > 50 µg/mL; IC50 (µg/mL), pseudovirus neutralization [10]: 0.408 µg/mL; IC50 (µg/mL), pseudovirus neutralization [11]: > 50 µg/mL; IC50 (µg/mL), pseudovirus neutralization [12]: > 50 µg/mL; IC50 (µg/mL), pseudovirus neutralization [13]: > 50 µg/mL; IC50 (µg/mL), pseudovirus neutralization [14]: 3.52 µg/mL; IC50 (µg/mL), pseudovirus neutralization [15]: > 50 µg/mL; IC50 (µg/mL), pseudovirus neutralization [16]: > 50 µg/mL; IC50 (µg/mL), pseudovirus neutralization [17]: 3.41 µg/mL; IC50 (µg/mL), pseudovirus neutralization [18]: 32.9 µg/mL; IC50 (µg/mL), pseudovirus neutralization [19]: > 50 µg/mL; IC50 (µg/mL), pseudovirus neutralization [20]: > 50 µg/mL; IC50 (µg/mL), pseudovirus neutralization [21]: > 50 µg/mL; IC50 (µg/mL), pseudovirus neutralization [22]: 0.005 µg/mL; IC50 (µg/mL), pseudovirus neutralization [23]: > 50 µg/mL; IC50 (µg/mL), pseudovirus neutralization [24]: > 50 µg/mL; IC50 (µg/mL), pseudovirus neutralization [25]: > 50 µg/mL; IC50 (µg/mL), pseudovirus neutralization [26]: > 50 µg/mL; IC50 (µg/mL), pseudovirus neutralization [27]: > 50 µg/mL; IC50 (µg/mL), pseudovirus neutralization [28]: > 50 µg/mL; IC50 (µg/mL), pseudovirus neutralization [29]: > 50 µg/mL; IC50 (µg/mL), pseudovirus neutralization [30]: > 50 µg/mL; IC50 (µg/mL), pseudovirus neutralization [31]: 9.35 µg/mL; IC50 (µg/mL), pseudovirus neutralization [32]: > 50 µg/mL

Question: 4858_P08 (PGT-123) (antibody) was tested. Which EC50 [1] did it give?
Answer: 0.2 µg/mL

Question: What about the IC50, pseudovirus neutralization [33] of the same substance?
Answer: > 50 µg/mL

Question: And the IC50 (µg/mL), pseudovirus neutralization [34]?
Answer: > 50 µg/mL

Question: What about the IC50 (µg/mL), pseudovirus neutralization [35] of the same substance?
Answer: 0.053 µg/mL

Question: What about the IC50, pseudovirus neutralization [36] of the same substance?
Answer: 0.0038 µg/mL

Question: What about the IC50 (µg/mL), pseudovirus neutralization [37] of the same substance?
Answer: > 50 µg/mL

Question: What about the IC50, pseudovirus neutralization [38] of the same substance?
Answer: 0.492 µg/mL

Question: What about the IC50 (µg/mL), pseudovirus neutralization [39] of the same substance?
Answer: > 50 µg/mL

Question: And the IC50 (µg/mL), pseudovirus neutralization [40]?
Answer: > 50 µg/mL

Question: Which results are given for 4877_D15 (PGT-122) (antibody)?
Answer: EC50 [1]: 0.3 µg/mL; IC50, pseudovirus neutralization [33]: > 50 µg/mL; IC50 (µg/mL), pseudovirus neutralization [34]: > 50 µg/mL; IC50 (µg/mL), pseudovirus neutralization [35]: 0.154 µg/mL; IC50, pseudovirus neutralization [36]: 0.0072 µg/mL; IC50 (µg/mL), pseudovirus neutralization [37]: > 50 µg/mL; IC50, pseudovirus neutralization [38]: 1.68 µg/mL; IC50 (µg/mL), pseudovirus neutralization [39]: > 50 µg/mL; IC50 (µg/mL), pseudovirus neutralization [40]: > 50 µg/mL
